Results from patent publication US20240376170A1 (BRIGHT PEAK THERAPEUTICS, published 2024).
Each block holds one binder with its values, some of them ahead of it. Bridges are numbered along the chain shown (N, C = ends). Primed or numbered codes have the meaning given here. [ ]: non-standard residue; d: D form. 8x polyethylene glycol‑amino = O-(8x polyethylene glycol-amino)-tyrosine, SITE 45; 9x polyethylene glycol‑azido = O-(9x polyethylene glycol-azido)-tyrosine, SITE 42; Ygp = O-(8x polyethylene glycol-amino)-tyrosine (Tyr, amino-capped PEG8); Yn3 = O-(9x polyethylene glycol-azido)-tyrosine (Tyr, azide-capped PEG9); Ygp″ = O-(8x polyethylene glycol-amino)-tyrosine; Yn3″ = O-(9x polyethylene glycol-azido)-tyrosine; PEG16′ = 16x polyethylene glycol; PEG24′ = 24x polyethylene glycol; Ygp(6) = Tyr, amino-capped PEG8; Yn3(6) = Tyr, azide-capped PEG9; PEG4′ = 4x polyethylene glycol; hSer = N[C@@H](CCO)C(=O)O; Nle = CCCC[C@H](N)C(=O)O

Legend:
[1] = target: T1, IL-2Rβγ on HEK-Blue IL-2Rβγ reporter cells (InvivoGen) (UniProt P14784 27-551; P31785 23-369, limits assumed); experiment: cell-based or functional assay
T1 sequence (looked up) 1: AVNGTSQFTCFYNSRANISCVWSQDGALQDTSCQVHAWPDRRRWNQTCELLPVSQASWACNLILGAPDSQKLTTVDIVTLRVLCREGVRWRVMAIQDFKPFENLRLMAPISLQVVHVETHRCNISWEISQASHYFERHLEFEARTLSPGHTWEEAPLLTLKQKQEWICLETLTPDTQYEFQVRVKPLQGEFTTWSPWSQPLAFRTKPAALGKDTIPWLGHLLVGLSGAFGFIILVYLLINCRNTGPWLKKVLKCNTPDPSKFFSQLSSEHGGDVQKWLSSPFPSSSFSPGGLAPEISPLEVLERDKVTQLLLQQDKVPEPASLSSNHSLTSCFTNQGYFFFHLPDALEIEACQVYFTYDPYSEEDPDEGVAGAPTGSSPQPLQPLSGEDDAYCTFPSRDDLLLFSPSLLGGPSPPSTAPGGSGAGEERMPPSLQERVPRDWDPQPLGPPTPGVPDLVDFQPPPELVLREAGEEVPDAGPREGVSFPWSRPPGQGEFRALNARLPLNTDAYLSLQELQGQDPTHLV
T1 sequence (looked up) 2: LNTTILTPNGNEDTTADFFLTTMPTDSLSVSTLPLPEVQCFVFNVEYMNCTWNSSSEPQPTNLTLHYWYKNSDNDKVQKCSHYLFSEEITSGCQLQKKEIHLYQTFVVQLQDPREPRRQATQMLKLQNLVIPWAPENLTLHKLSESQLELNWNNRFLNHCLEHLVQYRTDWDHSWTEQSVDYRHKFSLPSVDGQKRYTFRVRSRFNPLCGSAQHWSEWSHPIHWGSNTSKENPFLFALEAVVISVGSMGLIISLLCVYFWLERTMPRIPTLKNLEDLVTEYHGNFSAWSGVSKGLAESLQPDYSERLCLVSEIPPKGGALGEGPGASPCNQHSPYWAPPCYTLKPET

[2] = target: T2, IL-2 receptor βγ complex (human, UniProt P14784 27-551; P31785 23-369); experiment: cell-based or functional assay
T2 sequence (looked up) 1: T1 sequence (looked up) 1
T2 sequence (looked up) 2: T1 sequence (looked up) 2

- Average EC50, HEK-Blue IL-2R (CD122+, CD132+) Reporter Assay, Matriptase cleaved molecule [1]: 2.15 nM
B1: CMP-330, matriptase cleaved (ligand)
chain: APTSSSTKKTQLQLEHLLLDLQEILNGINNYKNPKLTR[Nle]L[hSer]Y(9x polyethylene glycol‑azido)KFY(8x polyethylene glycol‑amino)[Nle]PKKATELKHLQCLEEELKPLEEVL[hSer]LAQSKNFHLRPRDLISNINVIVLELKGSETTF[hSer]CEYADETATIVEFLNRWITFSQSIISTLT
modifications: not fully specified; also: before the cut Lys9 and Glu23 side chains are bridged by a peptide linker, what remains after the cut not given here

- Average EC50, pSTAT5 Assay (T cells) [2]: 21.3 nM
B2: CMP-139 (ligand)
chain: [PEG16′]SGGPGPAGMKGLPGS[PEG16′]APTSSSTKKTQLQLEHLLLDLQ[Nle]ILNGIENYKNPKLTR[Nle]L[hSer][Yn3]KF[Ygp][Nle]PKKATELKHLQCLEEELKPLEEVL[hSer]LAQSKNFHLRPRDLISNINVIVLELKGSETTF[hSer]CEYADETATIVEFLNRWITFSQSIISTLT
modifications: bridge (positions not given here); not fully specified (bridges); ends not checked

- Average EC50, HEK-Blue IL-2R (CD122+, CD132+) Reporter Assay, uPa cleaved molecule [1]: 1.73 nM
B3: CMP-330, uPa cleaved (ligand)
chain: APTSSSTKKTQLQLEHLLLDLQEILNGINNYKNPKLTR[Nle]L[hSer]Y(9x polyethylene glycol‑azido)KFY(8x polyethylene glycol‑amino)[Nle]PKKATELKHLQCLEEELKPLEEVL[hSer]LAQSKNFHLRPRDLISNINVIVLELKGSETTF[hSer]CEYADETATIVEFLNRWITFSQSIISTLT
modifications: not fully specified; also: before the cut Lys9 and Glu23 side chains are bridged by a peptide linker, what remains after the cut not given here

- Average EC50, HEK-Blue IL-2R (CD122+, CD132+) Reporter Assay, uPa cleaved molecule [1]: 1.41 nM
B6: CMP-329, uPa cleaved (ligand)
chain: APTSSSTKKTQLQLEHLLLDLQEILNGINNYKNPKLTR[Nle]L[hSer][Yn3″]KF[Ygp″][Nle]PKKATELKHLQCLEEELKPLEEVL[hSer]LAQSKNFHLRPRDLISNINVIVLELKGSETTF[hSer]CEYADETATIVEFLNRWITFSQSIISTLT
modifications: ends and bridges not checked; also: uPa-cleaved, cut in the RQRRSVVGG bridge between Lys9 and Glu23, remaining fragments not given here

- Average EC50, HEK-Blue IL-2R (CD122+, CD132+) Reporter Assay, uPa cleaved molecule [1]: 0.571 nM
B7: CMP-328, uPa cleaved (ligand)
chain: APTSSSTKKTQLQLEHLLLDLQEILNGINNYKNPKLTR[Nle]L[hSer][Yn3]KF[Ygp][Nle]PKKATELKHLQCLEEELKPLEEVL[hSer]LAQSKNFHLRPRDLISNINVIVLELKGSETTF[hSer]CEYADETATIVEFLNRWITFSQSIISTLT
modifications: also: uPa-cleaved, before the cut Lys9-Glu23 side chains bridged by peptide linker, product not given here

- Average EC50, pSTAT5 Assay (T cells) [2]: 3.61 nM
B8: CMP-139, MMP2 cleaved molecule (ligand)
chain: APTSSSTKKTQLQLEHLLLDLQ[Nle]ILNGIENYKNPKLTR[Nle]L[hSer][Yn3]KF[Ygp][Nle]PKKATELKHLQCLEEELKPLEEVL[hSer]LAQSKNFHLRPRDLISNINVIVLELKGSETTF[hSer]CEYADETATIVEFLNRWITFSQSIISTLT
modifications: ends and bridges not checked; also: cleaved by MMP2, cleavage product not defined, N-terminal PEG16 link and Glu29 side-chain attachment of the cleavable peptide not defined

- Average EC50, pSTAT5 Assay (T cells) [2]: 16.1 nM
B14: CMP-152 (ligand)
chain: PLGLAGAPTSSSTKKTQLQLEHLLLDLQ[Nle]ILNGINNYKNPKLTR[Nle]L[hSer][Yn3″]KF[Ygp″][Nle]PKKATELKHLQCLEEELKPLEEVL[hSer]LAQSKNFHLRPRDLISNINVIVLELKGSETTF[hSer]CEYADETATIVEFLNRWITFSQSIISTLT
modifications: linker N-38 via PEG9‑glutaryl

The next lines start with the binder.

B4: CMP-328, matriptase cleaved (ligand)
chain: APTSSSTKKTQLQLEHLLLDLQEILNGINNYKNPKLTR[Nle]L[hSer][Yn3]KF[Ygp][Nle]PKKATELKHLQCLEEELKPLEEVL[hSer]LAQSKNFHLRPRDLISNINVIVLELKGSETTF[hSer]CEYADETATIVEFLNRWITFSQSIISTLT
modifications: also: matriptase-cleaved, before the cut Lys9-Glu23 side chains bridged by peptide linker, product not given here
- Average EC50, HEK-Blue IL-2R (CD122+, CD132+) Reporter Assay, Matriptase cleaved molecule [1]: 0.352 nM

B5: CMP-137, MMP2 cleaved molecule (ligand)
chain: APTSSSTKKTQLQLEHLLLDLQ[Nle]ILNGIENYKNPKLTR[Nle]L[hSer][Yn3]KF[Ygp][Nle]PKKATELKHLQCLEEELKPLEEVL[hSer]LAQSKNFHLRPRDLISNINVIVLELKGSETTF[hSer]CEYADETATIVEFLNRWITFSQSIISTLT
modifications: ends and bridges not checked; also: cleaved by MMP2, cleavage product not defined, N-terminal PEG24 link and Glu29 side-chain attachment of the cleavable peptide not defined
- Average EC50, pSTAT5 Assay (T cells) [2]: 4.09 nM

B9: CMP-300, MMP2 cleaved (ligand)
chain: APTSSSTKKTQLQLEHLLLDLQEILNGINNYKNPKLTR[Nle]L[hSer][Yn3″]KF[Ygp″][Nle]PKKATELKHLQCLEEELKPLEEVL[hSer]LAQSKNFHLRPRDLISNINVIVLELKGSETTF[hSer]CEYADETATIVEFLNRWITFSQSIISTLT
modifications: ends and bridges not checked; also: MMP2 cleaved, ring opened, cut site and remnants not given here
- Average EC50, HEK-Blue IL-2R (CD122+, CD132+) Reporter Assay, MMP2 cleaved molecule [1]: 0.0094 nM

B10: CMP-152, MMP2 cleaved molecule (ligand)
chain: PLGLAGAPTSSSTKKTQLQLEHLLLDLQ[Nle]ILNGINNYKNPKLTR[Nle]L[hSer][Yn3″]KF[Ygp″][Nle]PKKATELKHLQCLEEELKPLEEVL[hSer]LAQSKNFHLRPRDLISNINVIVLELKGSETTF[hSer]CEYADETATIVEFLNRWITFSQSIISTLT
modifications: not fully specified (bridges); also: MMP2 cleaved, site not given here
- Average EC50, pSTAT5 Assay (T cells) [2]: 2.95 nM

B11: CMP-300 (ligand)
chain: GPLGLAG[PEG4′]APTSSSTKKTQLQLEHLLLDLQEILNGINNYKNPKLTR[Nle]L[hSer][Yn3″]KF[Ygp″][Nle]PKKATELKHLQCLEEELKPLEEVL[hSer]LAQSKNFHLRPRDLISNINVIVLELKGSETTF[hSer]CEYADETATIVEFLNRWITFSQSIISTLT
modifications: lactam N-31; ends not checked
- Average EC50, HEK-Blue IL-2R (CD122+, CD132+) Reporter Assay, intact molecule [1]: 0.711 nM

B12: CMP-329, matriptase cleaved (ligand)
chain: APTSSSTKKTQLQLEHLLLDLQEILNGINNYKNPKLTR[Nle]L[hSer][Yn3″]KF[Ygp″][Nle]PKKATELKHLQCLEEELKPLEEVL[hSer]LAQSKNFHLRPRDLISNINVIVLELKGSETTF[hSer]CEYADETATIVEFLNRWITFSQSIISTLT
modifications: ends and bridges not checked; also: after matriptase cleavage, remnants of the Lys9–Glu23 peptide linker not given here
- Average EC50, HEK-Blue IL-2R (CD122+, CD132+) Reporter Assay, Matriptase cleaved molecule [1]: 1.47 nM

B13: CMP-321, matriptase cleaved (ligand)
chain: SGRVQPLVDAPTSSSTKKTQLQLEHLLLDLQEILNGINNYKNPKLTR[Nle]L[hSer][Yn3(6)]KF[Ygp(6)][Nle]PKKATELKHLQCLEEELKPLEEVL[hSer]LAQSKNFHLRPRDLISNINVIVLELKGSETTF[hSer]CEYADETATIVEFLNRWITFSQSIISTLT
modifications: not fully specified (bridges)
- Average EC50, HEK-Blue IL-2R (CD122+, CD132+) Reporter Assay, Matriptase cleaved molecule [1]: 4.22 nM

B15: CMP-137 (ligand)
chain: [PEG24′]PLGLAG[PEG24′]APTSSSTKKTQLQLEHLLLDLQ[Nle]ILNGIENYKNPKLTR[Nle]L[hSer][Yn3]KF[Ygp][Nle]PKKATELKHLQCLEEELKPLEEVL[hSer]LAQSKNFHLRPRDLISNINVIVLELKGSETTF[hSer]CEYADETATIVEFLNRWITFSQSIISTLT
modifications: bridge (positions not given here); not fully specified (bridges); ends not checked
- Average EC50, pSTAT5 Assay (T cells) [2]: 27.1 nM
